In patent publication US20220089692A1:

Molecular target: SARS-CoV-2 Spike RBD-His Recombinant Protein (SARS-CoV-2) (UniProt P0DTC2)
Experiment: monoclonal phage ELISA, SPIKE RBD coated 200 ng/well; helper phage control

Q: With M13KO7 auxiliary phage as the substance, how does the ELISA signal (OD450) read?
A: 0.0434
